# Experimental data as given in patent publication US20250250357A1 (NANJING ZAIMING PHARMACEUTICAL, published 2025).
# How the values were obtained:
# [1] = molecular target: T1, human MSLN protein endogenously expressed on OVCAR3 tumor cells (human, UniProt Q13421 296-598); test: FACS on OVCAR3 cells;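 also: flow cytometry of chimeric antibody binding to OVCAR3 cells, 2 h on ice, read as cellular mean fluorescence intensity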
# T1 construct: whole, on cells; endogenous expression on a tumor cell line; also called human mesothelin
# Procedure: (§1) The desired cells were expanded to the logarithmic growth phase in a T-75 cell culture flask. […] After the cells from the previous step were subjected to cell counting, the cell pellet was resuspended to 2×10⁶ cells/mL in a blocking buffer of [PBS+2% (w/w) BSA] and added into a 96-well FACS reaction plate at 50 μL/well. A chimeric antibody (a sample to be tested) was added at 50 μL/well, and the plate was incubated on ice for 2 h. […] After the plate was centrifuged and washed 5 times with a PBST buffer, assay and analysis were performed by FACS (FACS CantoII, purchased from BD). Data analysis was performed by software (Flowjo) to obtain the mean fluorescence intensity (MFI) of the cells.
# [2] = molecular target: T2, human MSLN-R3 protein expressed on HEK293T cells (HEK293T-hMSLN-R3) (human, UniProt Q13421 487-606); test: FACS on HEK293T-hMSLN-R3 cells;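 also: chimeric antibodies incubated with cells on ice for 2 h, binding read by flow cytometry as mean fluorescence intensity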
# T2 construct: C-terminal limit uncertain
# Procedure: as §1
# [3] = molecular target: T3, human MSLN-FL-his protein (human, UniProt Q13421 296-580); test: competitive ELISA; row F8-4.5
# T3 construct: made in HEK293E cells, purified on nickel column; also called hMSLN-FL-his; human MSLN full-length protein; not shown: His tag
# [4] = molecular target: T3, human MSLN-FL-his protein; test: competitive ELISA; row F8-7.5
# Procedure: (§2) In order to identify antigen-binding sites of antibodies, MSLN chimeric antibodies were grouped using competitive ELISA.
# (§3) The chimeric antibodies were diluted to 2 μg/mL with PBS and allowed to coat 96-well high-adsorption ELISA plates at 50 μL/well. After the plates were coated at 4° C. overnight, 250 μL of a blocking buffer (PBS containing 2% (w/w) BSA) was added for two hours of blocking at room temperature. 40 μg/mL of the antibodies to be tested were added, and then the human MSLN-FL-His protein with an EC₈₀ concentration corresponding to each of the antibodies to be tested was added for incubation for 2 h. The plates were washed 5 times with PBS, an HRP-labeled anti-His secondary antibody (purchased from Genescript, Cat. No. A00612) was then added for incubation for 1 h, and the plates were washed 5 times again. A TMB substrate was added at 50 μL/well, and after 10 minutes of incubation at room temperature, a stop solution (1.0 M HCl) was added at 50 μL/well. OD₄₅₀ nm values were read using an ELISA plate reader (Insight, purchased from PerkinElmer), and the competition rate between the antibodies was calculated according to the OD₄₅₀ nm values using a formula.
# [5] = molecular target: T3, human MSLN-FL-his protein; test: competitive ELISA; row Tab021
# Procedure: as §2, §3
# [6] = molecular target: T3, human MSLN-FL-his protein; test: competitive ELISA; row Tab142
# Procedure: as §2, §3
# [7] = molecular target: T3, human MSLN-FL-his protein; test: competitive ELISA; row F8-13.8
# Procedure: as §2, §3
# [8] = molecular target: T3, human MSLN-FL-his protein; test: competitive ELISA; row F8-18.9
# Procedure: as §2, §3
# [9] = molecular target: T3, human MSLN-FL-his protein; test: competitive ELISA; row F8-27.1
# Procedure: as §2, §3
# [10] = molecular target: T3, human MSLN-FL-his protein; test: competitive ELISA; row F8-5.15
# Procedure: as §2, §3
# [11] = molecular target: T3, human MSLN-FL-his protein; test: competitive ELISA; row F8-12.13
# Procedure: as §2, §3
# [12] = molecular target: T3, human MSLN-FL-his protein; test: competitive ELISA; row F8-15.19
# Procedure: as §2, §3
# [13] = molecular target: T3, human MSLN-FL-his protein; test: competitive ELISA; row F8-19.21
# Procedure: as §2, §3
# [14] = molecular target: T3, human MSLN-FL-his protein; test: competitive ELISA; row F8-31.22
# Procedure: as §2, §3
# [15] = molecular target: T3, human MSLN-FL-his protein; test: SPR (Biacore), antibody captured on Protein A chip;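 also: flow cell at 25 °C, antigen injected for 240 s at five concentrations from 200 nM downward, dissociation followed up to 600 s, double-referenced, fitted with Langmuir 1:1 model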
# [16] = molecular target: T4, human MSLN-R2-his protein (human, UniProt Q13421 391-486); test: ELISA on coated antigen, antibody 1 nM
# T4 construct: Self-made in HEK293E cells; also called human MSLN-R2 protein; hMSLN-R2-his; not shown: His tag
# [17] = molecular target: T5, human MSLN-R3-his protein (human, UniProt Q13421 487-598); test: ELISA on coated antigen, antibody 1 nM
# T5 construct: Self-made in HEK293E cells; also called human MSLN-R3 protein; hMSLN-R3-his; not shown: His tag
# [18] = molecular target: T6, human MSLN-R3-3 polypeptide (human); test: ELISA on coated antigen, antibody 1 nM
# T6 construct: also called human MSLN-R3-3 protein; hMSLN-R3-3
# Procedure: (§4) The plate was sealed with a plastic film and incubated at 4° C. overnight. The next day, the plate was washed twice with PBST, and a blocking buffer [PBS+2% (w/w) BSA] was added for blocking at room temperature for 2 h. The blocking buffer was discarded, and a chimeric antibody or negative control antibody serially diluted from 100 nM was added at 50 μL/well. After incubation at 37° C. for 2 h, the plate was washed 3 times with PBST. […] After incubation at 37° C. for 2 h, the plate was washed 5 times with PBST. A TMB substrate was added at 50 μL/well for incubation at room temperature for 5-10 min, and then a stop solution (1.0 N HCl) was added at 50 μL/well.
# [19] = molecular target: T4, human MSLN-R2-his protein; test: ELISA on coated antigen, antibody 10 nM
# Procedure: as §4
# [20] = molecular target: T5, human MSLN-R3-his protein; test: ELISA on coated antigen, antibody 10 nM
# Procedure: as §4
# [21] = molecular target: T6, human MSLN-R3-3 polypeptide; test: ELISA on coated antigen, antibody 10 nM
# Procedure: as §4
# [22] = molecular target: T4, human MSLN-R2-his protein; test: ELISA on coated antigen, antibody 0.1 nM
# Procedure: as §4
# [23] = molecular target: T4, human MSLN-R2-his protein; test: ELISA on coated antigen, antibody 100 nM
# Procedure: as §4
# [24] = molecular target: T5, human MSLN-R3-his protein; test: ELISA on coated antigen, antibody 0.1 nM
# Procedure: as §4
# [25] = molecular target: T5, human MSLN-R3-his protein; test: ELISA on coated antigen, antibody 100 nM
# Procedure: as §4
# [26] = molecular target: T6, human MSLN-R3-3 polypeptide; test: ELISA on coated antigen, antibody 0.1 nM
# Procedure: as §4
# [27] = molecular target: T6, human MSLN-R3-3 polypeptide; test: ELISA on coated antigen, antibody 100 nM
# Procedure: as §4
# [28] = molecular target: T4, human MSLN-R2-his protein; test: ELISA on coated antigen, antibody 0.01 nM
# Procedure: as §4
# [29] = molecular target: T5, human MSLN-R3-his protein; test: ELISA on coated antigen, antibody 0.01 nM
# Procedure: as §4
# [30] = molecular target: T6, human MSLN-R3-3 polypeptide; test: ELISA on coated antigen, antibody 0.01 nM
# Procedure: as §4
# [31] = molecular target: T4, human MSLN-R2-his protein; test: ELISA on coated antigen, antibody 0.001 nM
# Procedure: as §4
# [32] = molecular target: T5, human MSLN-R3-his protein; test: ELISA on coated antigen, antibody 0.001 nM
# Procedure: as §4
# [33] = molecular target: T6, human MSLN-R3-3 polypeptide; test: ELISA on coated antigen, antibody 0.001 nM
# Procedure: as §4
# [34] = molecular target: T4, human MSLN-R2-his protein; test: ELISA on coated antigen, antibody 0.0001 nM
# Procedure: as §4
# [35] = molecular target: T5, human MSLN-R3-his protein; test: ELISA on coated antigen, antibody 0.0001 nM
# Procedure: as §4
# [36] = molecular target: T6, human MSLN-R3-3 polypeptide; test: ELISA on coated antigen, antibody 0.0001 nM
# Procedure: as §4
# [37] = molecular target: T4, human MSLN-R2-his protein; test: ELISA on coated antigen, no antibody (column none)
# Procedure: as §4
# [38] = molecular target: T5, human MSLN-R3-his protein; test: ELISA on coated antigen, no antibody (column none)
# Procedure: as §4
# [39] = molecular target: T6, human MSLN-R3-3 polypeptide; test: ELISA on coated antigen, no antibody (column none)
# Procedure: as §4
# T1 sequence (Q13421 other isoform, or with tags, fused parts or gaps): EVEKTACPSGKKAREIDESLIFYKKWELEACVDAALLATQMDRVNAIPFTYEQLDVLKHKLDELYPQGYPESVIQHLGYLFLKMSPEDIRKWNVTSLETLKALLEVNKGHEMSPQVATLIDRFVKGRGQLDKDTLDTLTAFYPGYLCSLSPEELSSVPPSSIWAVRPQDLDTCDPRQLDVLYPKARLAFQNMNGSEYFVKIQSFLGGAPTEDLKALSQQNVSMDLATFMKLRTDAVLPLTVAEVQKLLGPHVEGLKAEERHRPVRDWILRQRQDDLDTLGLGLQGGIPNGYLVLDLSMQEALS
# T5 sequence (Q13421 495-606): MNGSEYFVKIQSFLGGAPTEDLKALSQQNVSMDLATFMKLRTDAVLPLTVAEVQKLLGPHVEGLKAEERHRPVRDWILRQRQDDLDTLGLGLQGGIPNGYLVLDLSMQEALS
# T4 sequence (Q13421 other isoform, or with tags, fused parts or gaps): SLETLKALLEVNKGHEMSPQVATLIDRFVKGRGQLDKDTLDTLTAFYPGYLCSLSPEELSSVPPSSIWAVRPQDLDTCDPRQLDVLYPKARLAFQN
# T3 sequence (Q13421 other isoform, or with tags, fused parts or gaps): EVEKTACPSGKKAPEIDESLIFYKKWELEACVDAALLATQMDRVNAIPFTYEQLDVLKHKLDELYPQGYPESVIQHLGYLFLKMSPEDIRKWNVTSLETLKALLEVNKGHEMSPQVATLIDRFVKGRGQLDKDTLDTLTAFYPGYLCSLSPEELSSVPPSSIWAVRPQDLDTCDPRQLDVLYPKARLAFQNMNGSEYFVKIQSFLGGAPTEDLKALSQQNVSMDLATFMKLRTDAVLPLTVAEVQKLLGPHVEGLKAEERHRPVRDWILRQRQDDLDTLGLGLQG
# T2 sequence (Q13421 495-614): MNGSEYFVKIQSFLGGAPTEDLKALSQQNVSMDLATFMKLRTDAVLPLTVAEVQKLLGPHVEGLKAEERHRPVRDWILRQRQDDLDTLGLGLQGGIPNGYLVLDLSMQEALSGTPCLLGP
binder,measurement,setting,value
"S009-F8-15.19 (antibody, human IgG1, kappa, V domains shown, human-murine chimeric antibody, human IgG1/kappa constant regions) VH: EFQLQQSGPELVKPGASVKISCKASGYSFTDYNMNWVKQSNGKSLEWIGIINPYYGTTSNNQNFKGKATLTVDQSSSTAYMQLNSLTSDDSAVYYCARWLRRDAMDYWGQGTSVTVSS VL: DIVMTPSHKFMSTSVGDRVSIACKASQDVGSSVAWYQQKPGQSPKLLIYWTSTRHTGVPDRFTGSGSGTDFTLTISNVQSEDLADYFCQQYSSYPWTFGGGTKLEIKR",EC50,[1],3.16 nM
same,Maximum mean fluorescence intensity,[1],8140
same,Maximum mean fluorescence intensity,[2],165
same,binding result,[2],no binding
same,competition rate,[3],43.8%
same,competition rate,[4],-117%
same,competition rate,[5],-2.08%
same,competition rate,[6],39.3%
same,competition rate,[7],24%
same,competition rate,[8],8.37%
same,competition rate,[9],75.5%
same,competition rate,[10],99.3%
same,competition rate,[11],89.3%
same,competition rate,[12],94.1%
same,competition rate,[13],46.9%
same,competition rate,[14],90.7%
same,Kd,[15],5.37 nM
same,koff,[15],0.00724 s⁻¹
same,kon,[15],1.35e+06 M⁻¹ s⁻¹
"S009-F8-5.15 (antibody, human IgG1, kappa, V domains shown, human-murine chimeric antibody, human IgG1/kappa constant regions) VH: QVQLQQPGTELVKPGASVKLSCKASGYTFTSYWMHWVKQRPGQGLEWIGHSNPSNGGTNYNEKFKSKATLTVDKSSSTAYMQLSSLTSEDSAVYYCARWVRGSNYEYFDVWGTGTTVTVSS VL: DIVMTQSQKFMSTTVGDRVSIICKASQNVGSAVAWCQQKPGQSPKLLIYSASNRYTGVPDRFTGSGSGTDFTLTISNMQSEDLADYFCQQYSSYPLTFAGGTKLEIKR",EC50,[1],4.08 nM
same,Maximum mean fluorescence intensity,[1],4920
same,Maximum mean fluorescence intensity,[2],98
same,binding result,[2],no binding
same,competition rate,[3],29.6%
same,competition rate,[4],-148%
same,competition rate,[5],1.09%
same,competition rate,[6],15.3%
same,competition rate,[7],7.5%
same,competition rate,[8],8.9%
same,competition rate,[9],39.7%
same,competition rate,[10],96.8%
same,competition rate,[11],79.2%
same,competition rate,[12],82.2%
same,competition rate,[13],25.5%
same,competition rate,[14],79%
same,Kd,[15],27.4 nM
same,koff,[15],0.017 s⁻¹
same,kon,[15],620000 M⁻¹ s⁻¹
"S009-F8-31.22 (antibody, human IgG1, kappa, V domains shown, human-murine chimeric antibody, human IgG1/kappa constant regions) VH: EVQLVESGGDLVKPGGSLKLSCAASGFTFSTYGMSWVRQTPDKRLEWVATISSGGSYTYYPDSLKGRFTISRDNAKNTLYLQMSSLKSEDTAMYYCARHEGYYYGKDYWGQGTTLTVSS VL: DIVLTQSPATLSVTPGDSVSLSCRASHSISNNLHWYQQKSHESPRLLIKYASQSISGIPSKFSGSGSGTDFTLSINSVETEDFGMYFCQQTNSWPLTFGAGTKLELKR",EC50,[1],0.64 nM
same,Maximum mean fluorescence intensity,[1],7750
same,Maximum mean fluorescence intensity,[2],189
same,binding result,[2],no binding
same,competition rate,[3],-2.53%
same,competition rate,[4],18.1%
same,competition rate,[5],10.3%
same,competition rate,[6],12.9%
same,competition rate,[7],5.21%
same,competition rate,[8],0.11%
same,competition rate,[9],11.7%
same,competition rate,[10],86.5%
same,competition rate,[11],64.8%
same,competition rate,[12],83.2%
same,competition rate,[13],16.3%
same,competition rate,[14],69.3%
same,Kd,[15],87.6 nM
same,koff,[15],0.0276 s⁻¹
same,kon,[15],315000 M⁻¹ s⁻¹
"S009-F2.13.3 (antibody, human IgG1, kappa, V domains shown, Human-murine chimeric antibody: murine VH/VL on human IgG1 heavy and kappa light constant regions) VH: QVQLQQSGAELMKPGASVKLSCKATGYTFTGYWIEWVKQRPGHGLEWIGEILPGSGSTNYNEKFKGKATFTADTSSNTAYMQLSSLTTEDSAIYYCARAGAWFAYWGQGTLVTVSA VL: QIVLTQSPAIMSASLGERVTMTCTASSSVSSSYLHWYQQKPGSSPKLWTYSTSNLASGVPARFSGSGSGTSYSLTISSMEAEDAATYYCHQYHRSPWTFGGGTKLEIKR",OD450,[16],0.05 OD450
same,OD450,[17],0.05 OD450
same,OD450,[18],0.05 OD450
same,OD450,[19],0.06 OD450
same,OD450,[20],0.06 OD450
same,OD450,[21],0.07 OD450
same,OD450,[22],0.05 OD450
same,OD450,[23],0.07 OD450
same,OD450,[24],0.05 OD450
same,OD450,[25],0.06 OD450
same,OD450,[26],0.05 OD450
same,OD450,[27],0.06 OD450
same,OD450,[28],0.05 OD450
same,OD450,[29],0.05 OD450
same,OD450,[30],0.05 OD450
same,OD450,[31],0.05 OD450
same,OD450,[32],0.06 OD450
same,OD450,[33],0.05 OD450
same,OD450,[34],0.06 OD450
same,OD450,[35],0.05 OD450
same,OD450,[36],0.05 OD450
same,OD450,[37],0.06 OD450
same,OD450,[38],0.06 OD450
same,OD450,[39],0.05 OD450
"S009-F2.16.10 (antibody, human IgG1, kappa, V domains shown, Human-murine chimeric antibody: murine VH/VL on human IgG1 heavy and kappa light constant regions) VH: QVQLQQPGAELIKPGASVKLSCKASGYTFTSYWMHWVKQRPGQGLEWIGIIHPNIGSTNYNERFKSKATLTVDKSSSTAYMQLSSLTSEDSAVYYCARRSSNYGDWYFDVWGTGTTVTVSS VL: DIVMTQSHRFMSTSVGDRVSITCKASQDVGTSVAWYQQKPGQSPKLLIYWASTQHTGVPDRFTGSGSGTDFTLTINNVQSEDLLDYFCQQYSSYPLTFGAGTKLELKR",OD450,[16],0.05 OD450
same,OD450,[17],0.05 OD450
same,OD450,[18],0.05 OD450
same,OD450,[19],0.05 OD450
same,OD450,[20],0.05 OD450
same,OD450,[21],0.05 OD450
same,OD450,[22],0.05 OD450
same,OD450,[23],0.05 OD450
same,OD450,[24],0.05 OD450
same,OD450,[25],0.06 OD450
same,OD450,[26],0.05 OD450
same,OD450,[27],0.05 OD450
same,OD450,[28],0.05 OD450
same,OD450,[29],0.05 OD450
same,OD450,[30],0.05 OD450
same,OD450,[31],0.05 OD450
same,OD450,[32],0.05 OD450
same,OD450,[33],0.05 OD450
same,OD450,[34],0.05 OD450
same,OD450,[35],0.05 OD450
same,OD450,[36],0.05 OD450
same,OD450,[37],0.06 OD450
same,OD450,[38],0.06 OD450
same,OD450,[39],0.05 OD450
